From patent US20260219282A1
One block for each binder: values may come before it.

Assays:
[1] = biological target: monoclonal antibody raised against the C4A4-HNE target sequence; test: competitive ELISA: standard peptide against the biotinylated peptide on a streptavidin plate, HRP-conjugated antibody; mean of the standard curves
[2] = biological target: synthetic peptide mimicking the type IV collagen alpha-4 chain, undigested
[3] = biological target: synthetic peptide mimicking the type IV collagen alpha-3 chain, undigested
[4] = biological target: monoclonal antibody raised against the C4A3-HNE target sequence; test: competitive ELISA: standard peptide against the biotinylated peptide on a streptavidin plate, HRP-conjugated antibody; mean of the standard curves

IC50 [1]: 0.0336 µg/mL
Binder: TYPGRHGPPG [C4A4-HNE standard/selection peptide …]

B1: active neutrophil elastase purified from human cells (protein)
chain: IVGGRRARPHAWPFMVSLQLRGGHFCGATLIAPNFVMSAAHCVANVNVRAVRVVLGAHNLSRREPTRQVFAVQRIFENGYDPVNLLNDIVILQLNGSATINANVQVAQLPAQGRRLGNGVQCLAMGWGLLGRNRGIASVLQELNVTVVTSLCRRSNVCTLVRGRQAGVCFGDSGSPLVCNGLIHGIASFVRGGCASGLYPDAFAPVAQFVNWIDSIIQ
release of the neo-epitope after 4 hours of incubation with active HNE, detected by the C4A4-HNE ELISA [2]: HNE was able to generate both neo-epitopes
release of the neo-epitope after 4 hours of incubation with active HNE, detected by the C4A3-HNE ELISA [3]: HNE was able to generate both neo-epitopes

IC50 [4]: 0.0731 µg/mL
Binder: EGTRPGPPGP [C4A3-HNE standard/selection peptide …]
